Reference: the supplement of paper PMC12636428

The sequences below were run on Saccharomyces cerevisiae (assay: transcriptional activation domain activity (GFP:mCherry ratio, weighted mean of sorted bins, harmonized to initial dataset scale) (arbitrary fluorescence ratio units); higher = stronger transcriptional activation). Settings: beta-estradiol 1 µM; induction time 4 h.
Outline: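 For this assay, yeast diploids with a GFP reporter carried barcoded protein tiles at URA3, each fused to an estradiol-inducible synthetic transcription factor. Induction was a 1:5 dilution into SC with 1 uM beta-estradiol for 4 hours at 30 °C, followed by sorting into 8 bins by GFP:mCherry ratio and barcode sequencing. Tiles under 50 reads were dropped, and activation activity was calculated as the read-weighted mean of bin median fluorescence, averaged across barcodes and linearly mapped onto the initial dataset scale.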
“MWLIWLIWLLALLVDLFSFSVLFFFSLSLFLSFFWFFFFSFFQSFFPFLAVSF” was tested, and the “transcriptional activation domain activity” value was 66900.
In the case of “PPEEEAEEAVGAEKAEEAEEAEEAEEAVEEEPPKAANGRRSRAAAASAAKSSN”, the “transcriptional activation domain activity” value was 35500.
With “MFIVCLFLFMILHYSFMFYIFGSNYLLLLLLVLLSWWFFLLYFPTFIFLFGVL” the “transcriptional activation domain activity” value was 48700.
In the case of “EIAEGDEAEAARPAKIPRKPRRKKAVEGEGANEEGGAAPPRPKRKRKTKSKSA”, the “transcriptional activation domain activity” value was 42100.
With “RKEKGRNANNAKKGQNKRGGAQKEKAKTKVKSGEVSAEPGMKRGKRGRRRAAA” the “transcriptional activation domain activity” value was 48200.
“MFMGTLLLVFMDYGWAFFLDCYLWFFVTSLCFWYVKFCLLVGCCILVLCNVAW” was tested, and the “transcriptional activation domain activity” value was 31700.
“EGPPSPDKGKAEDEKNEKPQANTAKKAKPTEEKKVGEGKKAAAGTGGAGAKKE” was tested, and the “transcriptional activation domain activity” value was 23200.
“MGCILIFIFTFPYTPSFPFPFWFLFFVFLSFSFSFQKFLVFSFLSFVWVTVGR” was tested, and the “transcriptional activation domain activity” value was 51700.
“ADEEDLSSKPRCQRCRKSKKGCDRQRPCGRCKDAGIGIEGCVSEDEGNGRKGR” was tested, and the “transcriptional activation domain activity” value was less than 6570.
“ALTLVDPQGVLKCRIVLFCVIRGSVMVLGWWNYKLMHRWLLPGIIQCLSNIPV” was tested, and the “transcriptional activation domain activity” value was 64500.
“YMGSVNLVHYYGVRTFSFILLGPCLTLVVVYRVLALFQSANQQFYILVLAYIA” was tested, and the “transcriptional activation domain activity” value was 36200.
With “GGGKGHEDGYMREVRVVPAYLLVEIINRKENRKERVGAKLLLTRACVLGLYTL” the “transcriptional activation domain activity” value was 45400.
“GRKPAAKPTPRNSSTTARGRKAKSEPESEDDKPLAKKGGAAATKQTKKPAVKK” was tested, and the “transcriptional activation domain activity” value was 22300.
For “RLRAEGEEDAAAGNDQNKSGRKGGGVAMVGDGINDSPALAAASVGIALSTGSE”, the “transcriptional activation domain activity” value was 29300.
For “LSIPLYGLGGPAFSDDDEGEDLIPEHERYIQEAIDGYWVLVLRILVSNRPRKT”, the “transcriptional activation domain activity” value was 43800.
In the case of “MRHEHGGMAFNVFFLWTFMYLCLWLRVNVLCFMSISLFLMSLFFLFFLVWLSG”, the “transcriptional activation domain activity” value was 51200.
“RNSSLEEEDQVVAEGEVVGAAEEEGGEGEGREEVVVTEGREDMAVVGMAGMAD” was tested, and the “transcriptional activation domain activity” value was 35400.
“EGGEKGTKEGGEKKEGAGEKEGGEKKEGGEKEGAKEGGEIGAKEGEEKKEGGE” was tested, and the “transcriptional activation domain activity” value was 17500.
For “VKHLKLSRDKSSPTFKFDSLYREILSSHPELMFILTAMLLWPDLVSDYHILRV”, the “transcriptional activation domain activity” value was 30200.
In the case of “LSRVTGKEHDQMCRIVLGILVDLRLPDNQNPTRLIWAVRALLDFLYLAQYPIH”, the “transcriptional activation domain activity” value was 67200.
For “STATESGLAARSKDQIFCIPVPGQPWVDVRLRTLSESINSLLLLATLIKRCPV”, the “transcriptional activation domain activity” value was 59300.
For “RDAKERGEGKRKREERDSRRSERGEEDGKRRRESSADRDPDRKRSRRRRKDRD”, the “transcriptional activation domain activity” value was 40900.
In the case of “MFYYYFSPHFYCFMLPLYIFLFLISLFFIYPSKFYFLLIVMGVGFFSLHLCLP”, the “transcriptional activation domain activity” value was 51500.
“SQQRLEVSAMYLFWHMDTVRGLCVRMPGTVMTRAHFFRLLTYYFAMLFLSAAL” was tested, and the “transcriptional activation domain activity” value was 57000.
“FSHIQPGLNVPVRTIMFCFLFNVAFGLLYLGPSVAFGAYVASCTILLNISYAF” was tested, and the “transcriptional activation domain activity” value was 70800.
With “SNGKEMAFQYYSFVKEWGHVLGRYPGEIERCLIGTLGNIFFSGVKPIANSYFL” the “transcriptional activation domain activity” value was 45400.
For “SYFIAAIINWEMSGFFLFSYEYVHKDLNLGCSNLYFTWYALFKEYGAPLVPMS”, the “transcriptional activation domain activity” value was 45100.
In the case of “PFAFLLLLLFPLVLFLPALLLLFLPLLPLLPLLLWILWIQTLQSLFSFPDISD”, the “transcriptional activation domain activity” value was 46900.
“SPQRSTSSTSSKAAAAPKAAAQPKQQQQKPAAPSKPAAAAAAPKTAPKPAAAS” was tested, and the “transcriptional activation domain activity” value was 26000.
“VVLSVLCSLLNTTLKYNPASWRVPYDHVVFKDSKQILVTYCLQLLLVLILYPI” was tested, and the “transcriptional activation domain activity” value was 44500.
“INVTSPPPIDYLSIGDFSFFSFETTDLPFSIDSGVLLPSLSSFEQPIFDFNFI” was tested, and the “transcriptional activation domain activity” value was 143000.
“REDRQRKQQREKERAAREAEGTQRRRRKRRRTNGGAKTEEGEEENDGEEEEDG” was tested, and the “transcriptional activation domain activity” value was 52800.
“LIVVFAQSKIDSDEASVPVDEELNGVSLLVRILSDSAGRIYMIVTLELLLKRN” was tested, and the “transcriptional activation domain activity” value was 53600.
For “LGYQIVLLLPWTLFCYCWTLCVVIFSLVAMIIPPLGYVCTIFSVTSWRALARV”, the “transcriptional activation domain activity” value was 69800.
In the case of “HWRAFVTGGGSAFWLLAYGIFYWASRLSLDSFTSVILYLGYLVLLALMDFLVT”, the “transcriptional activation domain activity” value was 20300.
In the case of “RPKVQPFWVIDLFVPYRPLLSFVSDLYFAYQAWTQLTGLTVTLFYFSIWKLAL”, the “transcriptional activation domain activity” value was 58500.
With “MELFFRLFFWLMSWLLQLTHYFNTFTVLLYIHSLFSGVWFCKVLGFSFFFLYH” the “transcriptional activation domain activity” value was 51600.
With “REGEERERDGRRTSTGRRARGKGRRSRRKEGKRENRKERERKEGKEGPGQRRR” the “transcriptional activation domain activity” value was 26700.
For “CVFRLGFLFIFLVSYSIAWEWFFLFSLWHLCLLPLDIISIFLLFLGPLLWRSF”, the “transcriptional activation domain activity” value was 31500.
“FLSGWPLVLGKFGFDPKFNSCWYLNQDDRLTLIWLWCTFYFWVVASVIYSLLV” was tested, and the “transcriptional activation domain activity” value was 62300.
With “TSAVLDLGDERDVADYDVISLAEDYVGRDNRKGQKRAMRLDESGPRMEIKVVK” the “transcriptional activation domain activity” value was 45400.
With “FFEVGGVPRFQETVIAGGDNSVGRALSSPTVIYSGKHDGIALTIIRLLRPIWL” the “transcriptional activation domain activity” value was 53400.
With “CRLLSSSVFLFSFFPFFLFFFYCLLVFFAWFLILRGCFVVHCLCKFGYDWTGG” the “transcriptional activation domain activity” value was 30300.
In the case of “MHPPTHYRLLSPPLFPYIFFFQVGFLLRFFSLFFSLVSLVLILCVTFFFFFFG”, the “transcriptional activation domain activity” value was 57500.
In the case of “MANHQLYTDWLYLWWIAYTNKMAGHVYIILKESLKNIPLIGWGAQFYNFIFLA”, the “transcriptional activation domain activity” value was 54800.
“MGLIYLYFIFFINLLIWFSVVFCELYFFFFCLCLSNCIFEIYFYVLFFNIFLY” was tested, and the “transcriptional activation domain activity” value was 51000.
For “CHLTVIYFMSVPVIYLRLARLLFLEILTAGRIAIEGNGLGQGSLLAKTLRGRQ”, the “transcriptional activation domain activity” value was 66500.
For “MCSILPTVCNQYLIFLSFVSCPSMLYLISYFFLMWSFFSLHNWFFCWVPCCVL”, the “transcriptional activation domain activity” value was 52700.
In the case of “GFFFAIACLFICQGWMLGGDQSIKSISLGGGFLCLFFFSLFSFLFASWCVWLC”, the “transcriptional activation domain activity” value was 38700.
“KKKRDNRREKPRKSRKGRSDDEIREGEEGESRRRKRKEGGGRARAATPQEENE” was tested, and the “transcriptional activation domain activity” value was 32800.
With “RDANQCLELYPDIRILLVRLLEYPELMVITPIRMAIRCGLLYFSHLGSDRPQA” the “transcriptional activation domain activity” value was 58800.
For “IIALLLRFYDPSSGKVLVGPDDLRNLNVRSLRSHIALVTQSPVLFSGTILDNI”, the “transcriptional activation domain activity” value was 42100.
For “SDDETSRSHKKSSRRDTSQDDAERGRHHHKSSRHKGERDRHHKIRSRSRSPAR”, the “transcriptional activation domain activity” value was 13900.
For “KLRHRLEDEKEANFFRAIIHFTGLRLPQARSKPVNVVRGILLVLCQLVQFSGR”, the “transcriptional activation domain activity” value was 57100.
For “ATVNLVINFTEMTNLMRALLILYRLKERVLSMAKRLELAELRKSKSINVNLTL”, the “transcriptional activation domain activity” value was 60400.
For “MVVIVLQIGVSLYKLLVLLLWYVEWILYLFLLVEDRLLYQNMLLFEAPTLVYT”, the “transcriptional activation domain activity” value was 63300.
“MVGLVGFWVLFLFFLCPFLFSCPSPSPPLRPSLYIFQISYGSFFSCFSFLFFS” was tested, and the “transcriptional activation domain activity” value was 68700.
With “SEGLLCPLPRYPPHPIVSQLMQTSALRSLQTIVQLQRAHFMTLLFWNILLAFY” the “transcriptional activation domain activity” value was 57100.
With “SLYLCLGMLYLRKNPLLKEPLTLEHIKARLLGHWGSDAGQIFTYIHFNRLIKK” the “transcriptional activation domain activity” value was 69300.
“EGSGEEAGGEGSGGEEDEEDEAGGGGDDADGRRGEDDGADEGTAGARAAAKAA” was tested, and the “transcriptional activation domain activity” value was 34900.
For “DIDEQRLQLYGVQIQIFLFVVMLYIFGCNLVIASKMVVLQPRNMVSWCCLIPS”, the “transcriptional activation domain activity” value was 46800.
In the case of “MHSDMYLHPTLLSFLSVQFSMGFLFFLCRRYLYFSEWLLVVLCVFVSRFIGFI”, the “transcriptional activation domain activity” value was 38400.
For “QIDQNGDPLAKYVRNKVRTTKYTIISILPKDLFEQFRNVIFFLVLVIFQNFPF”, the “transcriptional activation domain activity” value was 56900.
In the case of “MSRLSIYVALLLLESICICWRGWIAPRHVAMESVQINFKTGRFLVYFMFPIKA”, the “transcriptional activation domain activity” value was 32000.
“VRTALLKSSHDADIDATVHDQAVREFCSSLNAVTRGVNVLVMTVALLVEIYAA” was tested, and the “transcriptional activation domain activity” value was 84400.
For “WLNGCFLLVGHIIFQLVMCYQLAQIIRGIVQMYGHLWISNDWHCLWITWLILF”, the “transcriptional activation domain activity” value was 63600.
“SSHCLLENDMFVFFANCSVNQLAMGEDMHHILRLCYSAELIKVLLTYLGRSTF” was tested, and the “transcriptional activation domain activity” value was 56400.
In the case of “PLLFLLNRLPIHPPLLIVPVLLWFYCRLTIYSILFWLNNLMVQKLSLLIMSIF”, the “transcriptional activation domain activity” value was 34500.
“KLLRWYIYPCAYRLGTVCCLFLSEIYNERHRKLSYAVMEPDTWPIMFTDKLAR” was tested, and the “transcriptional activation domain activity” value was 74900.
With “DSKSDATPAWSDLKTKAGKERKRLPLACIVCRRKKIRCSGEKPACKHCLRARI” the “transcriptional activation domain activity” value was 41900.
“VWEMCLVVGMGSELDVLYRVNNTVFVGCFCLARLTIVLLFAMSMLYLPMFRRD” was tested, and the “transcriptional activation domain activity” value was 61200.
For “SASSSAPRKPVSISIGGGGGGAAAAAAAPPADKKPVSISIGGSSAKAAAPAAA”, the “transcriptional activation domain activity” value was 38800.
In the case of “MRTLKLCSSCKHLGPEIYAFGWVCTNLSCQILFRHSGFHSLKGVTYSTSFLAQ”, the “transcriptional activation domain activity” value was 57400.
With “LMLQRLDIIRQILYLYRDPHLQIVLNRYYKSFNRRKIFLMNPVINALSNMPYF” the “transcriptional activation domain activity” value was 47500.
For “EGEGEEEAVTLKKTKKGRGGEEEAAKKGKKKGDEEDPAWEEAAAKKGKKKGEE”, the “transcriptional activation domain activity” value was 37800.
“MGFFILFYFLFSLWVCGFGFFSRLSVLYLGGFVLFLINHLSLFLYIIFFFFMF” was tested, and the “transcriptional activation domain activity” value was 38800.
With “LLYLPAVLEIYQDVHRSDLSSTVSWETFVAKIFEWMELQYVWPIAGKLLVTIF” the “transcriptional activation domain activity” value was 74800.
With “SLVLPCLSSYHYRFIDDYHVLHAQVKLMQGVLWWSMVQNITVYLLFLLLFLFA” the “transcriptional activation domain activity” value was 25200.
For “MYILTIIPFFKHMSFFSFFLSCFFMSLLIVLLLLLLLLFSLLLLLLFFFPRPL”, the “transcriptional activation domain activity” value was 54400.
“LFYFTFSFFVRTAFITLPIYLFWFLYSYFWNYWTSYFPWNDLFLPAWPISRTR” was tested, and the “transcriptional activation domain activity” value was 39300.
In the case of “EKKERAAEPIAEITTEAAAEPKAAAEEATPKKDKKEKKSKKEKKTEESAVTSE”, the “transcriptional activation domain activity” value was 34600.
For “MFCLRSWLPLLFIPTNASPIFIFLFFICTYFLNRPCVYCSFLLLILFASSCHW”, the “transcriptional activation domain activity” value was 48400.
With “SVSRLHAKIEYEEENERFVLVVLGRNGAWVDGIWSGSGSRVPLGPRSQIQIAT” the “transcriptional activation domain activity” value was 31600.
